Experimental data published in US20110217279.

Experiments:
[1] = system: T1, hBVR-derived substrate peptide GLKRNRYLSFHFK (hBVR aa222-234)
T1 sequence: GLKRNRYLSFHFKS

[2] = system: T2, variant peptide GLKRNRYLAFHFKSGSL
T2 sequence: GLKRNRYLAFHFKSGSL

[3] = system: T3, variant peptide GLKRNRYLAFHFK
T3 sequence: GLKRNRYLAFHFK

[4] = biological target: active recombinant human PKC-δ kinase (as a GST fusion protein), Q05655
Sequence of active recombinant human PKC-δ kinase (as a GST fusion protein), Q05655 (Q05655 whole entry, looked up, stated change not applied, the tested form may be a part): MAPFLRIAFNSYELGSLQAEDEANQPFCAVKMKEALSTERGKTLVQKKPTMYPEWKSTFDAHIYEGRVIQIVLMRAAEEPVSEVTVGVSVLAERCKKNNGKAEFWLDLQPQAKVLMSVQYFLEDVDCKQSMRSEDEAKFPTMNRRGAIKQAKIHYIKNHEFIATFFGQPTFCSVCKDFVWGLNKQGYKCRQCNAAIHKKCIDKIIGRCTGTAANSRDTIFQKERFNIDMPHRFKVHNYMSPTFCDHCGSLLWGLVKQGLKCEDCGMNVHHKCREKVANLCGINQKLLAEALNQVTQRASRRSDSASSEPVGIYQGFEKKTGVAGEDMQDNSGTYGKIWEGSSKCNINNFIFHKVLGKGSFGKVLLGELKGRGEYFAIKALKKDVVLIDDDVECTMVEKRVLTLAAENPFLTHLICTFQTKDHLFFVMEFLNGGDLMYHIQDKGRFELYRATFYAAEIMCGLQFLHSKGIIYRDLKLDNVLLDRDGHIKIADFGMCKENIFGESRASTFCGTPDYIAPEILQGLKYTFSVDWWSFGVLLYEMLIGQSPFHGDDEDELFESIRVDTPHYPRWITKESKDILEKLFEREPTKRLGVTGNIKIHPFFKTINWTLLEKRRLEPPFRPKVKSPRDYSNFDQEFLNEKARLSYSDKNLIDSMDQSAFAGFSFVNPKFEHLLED

## active recombinant human PKC-δ kinase (as a GST fusion protein)
[1]
  Km (phosphorylation of the peptide, in vitro kinase assay, Michaelis-Menten fit): Km of 1.59±0.58 µM
[2]
  phosphorylation of the peptide by PKC-δ (kinase assay, FIG. 4C): As with the shorter peptide, the replacement of serine with alanine markedly decreased phosphorylation of the peptide
[3]
  phosphorylation of the peptide by PKC-δ (kinase assay, FIG. 4C): A variant peptide in which the target serine was replaced by alanine was, as expected, not a substrate for the kinase

## recombinant PKC-βII
[1]
  Km (phosphorylation of the peptide, in vitro kinase assay, Michaelis-Menten fit): Km 14.03 µM

## recombinant PKC-ζ
[1]
  Km (phosphorylation of the peptide, in vitro kinase assay, Michaelis-Menten fit): Km 6.89 µM

B1: GST-hBVR fusion protein (protein)
chain: MNAEPERKFGVVVVGVGRAGSVRMRDLRNPHPSSAFLNLIGFVSRRELGSIDGVQQISLEDALSSQEVEVAYICSESSSHEDYIRQFLNAGKHVLVEYPMTLSLAAAQELWELAEQKGKVLHEEHVELLMEEFAFLKKEVVGKDLLKGSLLFTSDPLEEDRFGFPAFSGISRLTWLVSLFGELSLVSATLEERKEDQYMKMTVCLETEKKSPLSWIEEKGPGLKRNRYLSFHFKSGSLENVPNVGVNKNIFLKDQNIFVQKLLGQFSEKELAAEKKRILHCLGLAEEIQKYCCSRK
[4]
  PKC-δ autophosphorylation, phosphorylation of hBVR and kinase activity toward MBP (in vitro kinase assay): resulted in phosphorylation of hBVR concomitant with an enhanced PKC-δ autophosphorylation (FIG. 1A), and increased kinase activity toward the substrate, MBP (FIG. 1B)
